Consider three substances from patent US20090304686A1, “INTERFERING IN ACTIVATION OF AN IMMUNE CELL BY INFLUENCING INTERACTION OF LAIR AND COLLAGEN” (UNIVERSOTAIR MEDISCH CENTRUM UTRECHT, priority 2006, published 2009).

Test [1] has as its target collagen I (purified, Sigma; acid-soluble human collagen type I in BIAcore) (human) (UniProt P02452).
The target of test [2] is collagen III (purified, Sigma; acid-soluble human collagen type III in BIAcore) (human) (UniProt P02461).
The target of test [3] is hLAIR-1-CD3ζ chimera on 2B4 NFAT-GFP reporter cells (human) (UniProt Q6GTX8).
Sequence of hLAIR-1-CD3ζ chimera on 2B4 NFAT-GFP reporter cells (human) (Q6GTX8 22-165, change not shown): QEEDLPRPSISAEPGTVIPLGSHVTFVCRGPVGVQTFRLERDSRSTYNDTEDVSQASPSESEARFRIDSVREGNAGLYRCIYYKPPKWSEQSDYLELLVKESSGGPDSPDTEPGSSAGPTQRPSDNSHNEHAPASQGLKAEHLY
For test [4] the target is unchanged. This is another data set of the same source.
For test [5], the target named is collagen I (purified, Sigma; acid-soluble human collagen type I in BIAcore) (human) (UniProt P02452). Put plainly: BIAcore, equilibrium binding to immobilized human collagen I.
The target of test [6] is collagen III (purified, Sigma; acid-soluble human collagen type III in BIAcore) (human) (UniProt P02461). Put plainly: BIAcore, equilibrium binding to immobilized human collagen III.
In test [7] the target is collagen I (purified, Sigma; acid-soluble human collagen type I in BIAcore) (human) (UniProt P02452). Put plainly: SPR (BIAcore), equilibrium binding to immobilised collagen I. (SPR reads the build-up and loss of mass on a sensor chip optically.)
Test [8] concerns the target collagen III (purified, Sigma; acid-soluble human collagen type III in BIAcore) (human) (UniProt P02461). The experiment in a line: SPR (BIAcore), equilibrium binding to immobilised collagen III.
The target of test [9] is collagen I (purified, Sigma; acid-soluble human collagen type I in BIAcore) (human) (UniProt P02452). Put plainly: SPR (BIAcore), biphasic dissociation from collagen I, component Koff1.
Test [10] has the same target. The experiment in a line: SPR (BIAcore), biphasic dissociation from collagen I, component Koff2.
In test [11] the target is collagen III (purified, Sigma; acid-soluble human collagen type III in BIAcore) (human) (UniProt P02461). Put plainly: SPR (BIAcore), biphasic dissociation from collagen III, component Koff1.
For test [12] the target is unchanged. The experiment in a line: SPR (BIAcore), biphasic dissociation from collagen III, component Koff2.

A word on the Kd: it is the free concentration of one partner at which half of the binding sites on the other are occupied at equilibrium, for simple one-to-one binding. As a reminder, the koff is the rate constant with which the complex falls apart. A lower koff goes with a long-lived complex.

Sequence of collagen III (purified, Sigma; acid-soluble human collagen type III in BIAcore) (human) (P02461 154-1221): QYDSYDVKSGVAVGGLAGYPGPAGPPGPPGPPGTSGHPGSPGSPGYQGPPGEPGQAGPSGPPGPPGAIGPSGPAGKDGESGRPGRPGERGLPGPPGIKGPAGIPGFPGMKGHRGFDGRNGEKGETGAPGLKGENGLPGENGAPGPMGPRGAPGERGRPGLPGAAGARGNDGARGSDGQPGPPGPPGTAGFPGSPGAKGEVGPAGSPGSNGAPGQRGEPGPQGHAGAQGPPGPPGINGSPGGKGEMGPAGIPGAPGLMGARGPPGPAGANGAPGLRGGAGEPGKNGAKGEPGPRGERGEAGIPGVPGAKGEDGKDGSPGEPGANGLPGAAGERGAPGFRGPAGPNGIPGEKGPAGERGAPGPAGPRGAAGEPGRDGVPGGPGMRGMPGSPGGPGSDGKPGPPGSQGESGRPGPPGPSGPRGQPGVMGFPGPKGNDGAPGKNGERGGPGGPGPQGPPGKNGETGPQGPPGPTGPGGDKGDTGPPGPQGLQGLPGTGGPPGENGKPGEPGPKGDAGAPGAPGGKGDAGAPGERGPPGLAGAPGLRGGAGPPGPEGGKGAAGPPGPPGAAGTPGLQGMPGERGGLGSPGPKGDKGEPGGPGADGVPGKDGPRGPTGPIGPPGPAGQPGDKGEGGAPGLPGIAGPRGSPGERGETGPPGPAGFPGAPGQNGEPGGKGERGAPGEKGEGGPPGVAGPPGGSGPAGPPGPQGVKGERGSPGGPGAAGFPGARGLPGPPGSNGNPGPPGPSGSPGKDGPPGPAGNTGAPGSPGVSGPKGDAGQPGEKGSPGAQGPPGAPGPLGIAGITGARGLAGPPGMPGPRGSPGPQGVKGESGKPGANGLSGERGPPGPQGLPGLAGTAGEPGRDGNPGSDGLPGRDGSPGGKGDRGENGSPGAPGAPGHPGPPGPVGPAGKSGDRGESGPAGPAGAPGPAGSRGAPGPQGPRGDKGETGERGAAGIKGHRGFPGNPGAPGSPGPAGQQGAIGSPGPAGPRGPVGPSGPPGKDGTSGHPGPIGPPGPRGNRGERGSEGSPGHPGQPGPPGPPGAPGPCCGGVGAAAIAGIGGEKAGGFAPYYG

Turning to Control IgG (Fc fusion), the percentage of GFP-positive hLAIR-1-CD3ζ reporter cells on Collagen I pre-incubated with Control IgG (55.0 without block) in test [1] was 50.3%. This substance registered a percentage of GFP-positive hLAIR-1-CD3ζ reporter cells on Collagen III pre-incubated with Control IgG (45.3 without block) in test [2] of 42.8%.
With “collagen I (purified, Sigma; acid-soluble human collagen type I in BIAcore) (from UniProt P02452 162-1218; P08123 80-1119) (ligand)”, the percentage of GFP-positive reporter cells on coated Col I (parental cells 0.3) in [3] was 33.8%. Further, the percentage of GFP-positive reporter cells on Collagen I without block (parental cells 0.2) in test [4] came to 55%.
The substance “LAIR-2-IgG (human LAIR-2 fused to the Fc region of human IgG1) (from UniProt Q6ISS4 22-152) (Fc fusion)” came in with a percentage of GFP-positive hLAIR-1-CD3ζ reporter cells on Collagen I pre-incubated with LAIR-2-IgG (55.0 without block) in [1] of 0.5%. Further, the percentage of GFP-positive hLAIR-1-CD3ζ reporter cells on Collagen III pre-incubated with LAIR-2-IgG (45.3 without block) in test [2] came to 8.4%. Also, the Kd in test [5] was found to be 34.6 nM; in test [6] it was 41.4 nM. In test [7], this substance registered a Bmax (mol/mol Col I) of 10.4. Further, the Bmax (mol/mol Col III) in test [8] was found to be 10.7. The koff in [9] turned out to be 0.00083 s⁻¹; in test [10] it was 0.0073 s⁻¹; in test [11], 0.0005 s⁻¹; in test [12], 0.0046 s⁻¹.
